Data published in US20230002480A1.

What was measured:
Experiment in all cases: cell-based or functional assay
[1] = target: HIV-1 Env of pseudovirus 191955_A11 (HIV-1)
[2] = target: HIV-1 Env of pseudovirus HIV-0013095-2.11 (HIV-1)
[3] = target: HIV-1 Env of pseudovirus BJOX015000.11.5 (HIV-1)
[4] = target: HIV-1 Env of pseudovirus 1394C9G1(Rev-) (HIV-1)
[5] = target: HIV-1 Env of pseudovirus 3016.v5.c45 (HIV-1)
[6] = target: HIV-1 Env of pseudovirus Q23.17 (HIV-1)
[7] = target: HIV-1 Env of pseudovirus CNE17 (HIV-1)
[8] = target: HIV-1 Env of pseudovirus PVO.4 (HIV-1)
[9] = target: HIV-1 Env of pseudovirus 191084 B7-19 (HIV-1)
[10] = target: HIV-1 Env of pseudovirus ZM247v1(Rev-) (HIV-1)
[11] = target: HIV-1 Env of pseudovirus 6535.3 (HIV-1)
[12] = target: HIV-1 Env of pseudovirus Q842.d12 (HIV-1)
[13] = target: HIV-1 Env of pseudovirus Du422.1 (HIV-1)
[14] = target: HIV-1 Env of pseudovirus Q769.d22 (HIV-1)
[15] = target: HIV-1 Env of pseudovirus R2184.c04 (HIV-1)
[16] = target: HIV-1 Env of pseudovirus X1193_c1 (HIV-1)
[17] = target: HIV-1 Env of pseudovirus 928-28 (HIV-1)
[18] = target: HIV-1 Env of pseudovirus T257-31 (HIV-1)
[19] = target: HIV-1 Env of pseudovirus 9004SS_A3_4 (HIV-1)
[20] = target: HIV-1 Env of pseudovirus CAP45.2.00.G3 (HIV-1)
[21] = target: HIV-1 Env of pseudovirus TRJO4551.58 (HIV-1)
[22] = target: HIV-1 Env of pseudovirus 6240_08_TA5_4622 (HIV-1)
[23] = target: HIV-1 Env of pseudovirus 263-8 (HIV-1)
[24] = target: HIV-1 Env of pseudovirus 1056_10_TA11_1826 (HIV-1)
[25] = target: HIV-1 Env of pseudovirus T250-4 (HIV-1)
[26] = target: HIV-1 Env of pseudovirus 89-F1_2_25 (HIV-1)
[27] = target: HIV-1 Env of pseudovirus 3103.v3.c10 (HIV-1)
[28] = target: HIV-1 Env of pseudovirus 3301.v1.c24 (HIV-1)
[29] = target: HIV-1 Env of pseudovirus Du156.12 (HIV-1)
[30] = target: HIV-1 Env of pseudovirus 0815.v3.c3 (HIV-1)
[31] = target: HIV-1 Env of pseudovirus HIV-001428-2.42 (HIV-1)
[32] = target: HIV-1 Env of pseudovirus Ce2060_G9 (HIV-1)
[33] = target: HIV-1 Env of pseudovirus Q461.e2 (HIV-1)
[34] = target: HIV-1 Env of pseudovirus BJOX009000.02.4 (HIV-1)
[35] = target: HIV-1 Env of pseudovirus CNE53 (HIV-1)
[36] = target: HIV-1 Env of pseudovirus T278-50 (HIV-1)
[37] = target: HIV-1 Env of pseudovirus 249M B10 (HIV-1)

PGDM1400 (antibody)
IC50 [1]: 0.001 µg/mL | IC80 [1]: 0.021 µg/mL | IC50 [2]: 0.003 µg/mL | IC80 [2]: 0.012 µg/mL | IC50, titer in TZM.bl cells [3]: 0.52 µg/mL | IC80, titer in TZM.bl cells [3]: 10.6 µg/mL | IC50 [4]: < 0.001 µg/mL | IC80 [4]: 0.004 µg/mL | IC50, titer in TZM.bl cells [5]: > 50 µg/mL | IC80, titer in TZM.bl cells [5]: > 50 µg/mL | IC50 [6]: < 0.001 µg/mL | IC80 [6]: 0.003 µg/mL | IC50 [7]: 0.007 µg/mL | IC80 [7]: 0.021 µg/mL | IC50 [8]: 0.484 µg/mL | IC80 [8]: 6.49 µg/mL | IC50 [9]: < 0.001 µg/mL | IC80 [9]: 0.007 µg/mL | IC50 [10]: 0.019 µg/mL | IC80 [10]: 0.051 µg/mL | IC50 [11]: > 50 µg/mL | IC80 [11]: > 50 µg/mL | IC50 [12]: < 0.001 µg/mL | IC80 [12]: 0.002 µg/mL | IC50 [13]: 0.694 µg/mL | IC80 [13]: > 50 µg/mL | IC50 [14]: 0.002 µg/mL | IC80 [14]: 0.018 µg/mL | IC50, titer in TZM.bl cells [15]: 0.003 µg/mL | IC80, titer in TZM.bl cells [15]: 0.012 µg/mL | IC50, titer in TZM.bl cells [16]: 0.219 µg/mL | IC80, titer in TZM.bl cells [16]: 0.781 µg/mL | IC50 [17]: 0.22 µg/mL | IC80 [17]: 1.25 µg/mL | IC50 [18]: 0.002 µg/mL | IC80 [18]: 0.031 µg/mL | IC50 [19]: < 0.001 µg/mL | IC80 [19]: 0.002 µg/mL | IC50 [20]: < 0.001 µg/mL | IC80 [20]: 0.002 µg/mL | IC50 [21]: > 50 µg/mL | IC80 [21]: > 50 µg/mL | IC50 [22]: > 50 µg/mL | IC80 [22]: > 50 µg/mL | IC50 [23]: 0.02 µg/mL | IC80 [23]: 0.103 µg/mL | IC50 [24]: 3.26 µg/mL | IC80 [24]: 11.8 µg/mL | IC50 [25]: < 0.001 µg/mL | IC80 [25]: < 0.001 µg/mL | IC50, titer in TZM.bl cells [26]: 0.001 µg/mL | IC80, titer in TZM.bl cells [26]: 0.005 µg/mL | IC50, titer in TZM.bl cells [27]: 0.671 µg/mL | IC80, titer in TZM.bl cells [27]: 2 µg/mL | IC50, titer in TZM.bl cells [28]: 0.048 µg/mL | IC80, titer in TZM.bl cells [28]: 0.245 µg/mL | IC50 [29]: 0.002 µg/mL | IC80 [29]: 0.008 µg/mL | IC50, titer in TZM.bl cells [30]: > 50 µg/mL | IC80, titer in TZM.bl cells [30]: > 50 µg/mL | IC50 [31]: < 0.001 µg/mL | IC80 [31]: 0.027 µg/mL | IC50 [32]: 0.001 µg/mL | IC80 [32]: 0.007 µg/mL | IC50 [33]: 0.089 µg/mL | IC80 [33]: 0.572 µg/mL | IC50, titer in TZM.bl cells [34]: 0.443 µg/mL | IC80, titer in TZM.bl cells [34]: 1.29 µg/mL | IC50 [35]: 0.077 µg/mL | IC80 [35]: 0.246 µg/mL | IC50, titer in TZM.bl cells [36]: 0.574 µg/mL | IC80, titer in TZM.bl cells [36]: 4.94 µg/mL | IC50 [37]: 0.039 µg/mL | IC80 [37]: 0.786 µg/mL
